Measurements taken from PMC3220584 (The Journal of Biological Chemistry, 2011).

Biological target: the molecule itself
Experiment: SEC-MALS

B1: human collagen VI α3(VI) N-terminal N9-N1 region (domain or fragment, UniProt P12111 237-2028, looked up)
chain: AQDSADIIFLIDGSNNTGSVNFAVILDFLVNLLEKLPIGTQQIRVGVVQFSDEPRTMFSLDTYSTKAQVLGAVKALGFAGGELANIGLALDFVVENHFTRAGGSRVEEGVPQVLVLISAGPSSDEIRYGVVALKQASVFSFGLGAQAASRAELQHIATDDNLVFTVPEFRSFGDLQEKLLPYIVGVAQRHIVLKPPTIVTQVIEVNKRDIVFLVDGSSALGLANFNAIRDFIAKVIQRLEIGQDLIQVAVAQYADTVRPEFYFNTHPTKREVITAVRKMKPLDGSALYTGSALDFVRNNLFTSSAGYRAAEGIPKLLVLITGGKSLDEISQPAQELKRSSIMAFAIGNKGADQAELEEIAFDSSLVFIPAEFRAAPLQGMLPGLLAPLRTLSGTPEVHSNKRDIIFLLDGSANVGKTNFPYVRDFVMNLVNSLDIGNDNIRVGLVQFSDTPVTEFSLNTYQTKSDILGHLRQLQLQGGSGLNTGSALSYVYANHFTEAGGSRIREHVPQLLLLLTAGQSEDSYLQAANALTRAGILTFCVGASQANKAELEQIAFNPSLVYLMDDFSSLPALPQQLIQPLTTYVSGGVEEVPLAQPESKRDILFLFDGSANLVGQFPVVRDFLYKIIDELNVKPEGTRIAVAQYSDDVKVESRFDEHQSKPEILNLVKRMKIKTGKALNLGYALDYAQRYIFVKSAGSRIEDGVLQFLVLLVAGRSSDRVDGPASNLKQSGVVPFIFQAKNADPAELEQIVLSPAFILAAESLPKIGDLHPQIVNLLKSVHNGAPAPVSGEKDVVFLLDGSEGVRSGFPLLKEFVQRVVESLDVGQDRVRVAVVQYSDRTRPEFYLNSYMNKQDVVNAVRQLTLLGGPTPNTGAALEFVLRNILVSSAGSRITEGVPQLLIVLTADRSGDDVRNPSVVVKRGGAVPIGIGIGNADITEMQTISFIPDFAVAIPTFRQLGTVQQVISERVTQLTREELSRLQPVLQPLPSPGVGGKRDVVFLIDGSQSAGPEFQYVRTLIERLVDYLDVGFDTTRVAVIQFSDDPKVEFLLNAHSSKDEVQNAVQRLRPKGGRQINVGNALEYVSRNIFKRPLGSRIEEGVPQFLVLISSGKSDDEVDDPAVELKQFGVAPFTIARNADQEELVKISLSPEYVFSVSTFRELPSLEQKLLTPITTLTSEQIQKLLASTRYPPPAVESDAADIVFLIDSSEGVRPDGFAHIRDFVSRIVRRLNIGPSKVRVGVVQFSNDVFPEFYLKTYRSQAPVLDAIRRLRLRGGSPLNTGKALEFVARNLFVKSAGSRIEDGVPQHLVLVLGGKSQDDVSRFAQVIRSSGIVSLGVGDRNIDRTELQTITNDPRLVFTVREFRELPNIEERIMNSFGPSAATPAPPGVDTPPPSRPEKKKADIVFLLDGSINFRRDSFQEVLRFVSEIVDTVYEDGDSIQVGLVQYNSDPTDEFFLKDFSTKRQIIDAINKVVYKGGRHANTKVGLEHLRVNHFVPEAGSRLDQRVPQIAFVITGGKSVEDAQDVSLALTQRGVKVFAVGVRNIDSEEVGKIASNSATAFRVGNVQELSELSEQVLETLHDAMHETLCPGVTDAAKACNLDVILGFDGSRDQNVFVAQKGFESKVDAILNRISQMHRVSCSGGRSPTVRVSVVANTPSGPVEAFDFDEYQPEMLEKFRNMRSQHPYVLTEDTLKVYLNKFRQSSPDSVKVVIHFTDGADGDLADLHRASENLRQEGVRALILVGLERVVNLERLMHLEFGRGFMYDRPLRLNLLDLDYELAEQLDNIAEKA
stoichiometry N: 2
